Laboratory results from US20250346683A1 (AstraZeneca / MedImmune, published 2025).

Biological target: T1, human endothelial lipase (EL) (human, UniProt Q9Y5X9 21-500)
T1 construct: also called human EL; LIPG gene product
T1 sequence (looked up): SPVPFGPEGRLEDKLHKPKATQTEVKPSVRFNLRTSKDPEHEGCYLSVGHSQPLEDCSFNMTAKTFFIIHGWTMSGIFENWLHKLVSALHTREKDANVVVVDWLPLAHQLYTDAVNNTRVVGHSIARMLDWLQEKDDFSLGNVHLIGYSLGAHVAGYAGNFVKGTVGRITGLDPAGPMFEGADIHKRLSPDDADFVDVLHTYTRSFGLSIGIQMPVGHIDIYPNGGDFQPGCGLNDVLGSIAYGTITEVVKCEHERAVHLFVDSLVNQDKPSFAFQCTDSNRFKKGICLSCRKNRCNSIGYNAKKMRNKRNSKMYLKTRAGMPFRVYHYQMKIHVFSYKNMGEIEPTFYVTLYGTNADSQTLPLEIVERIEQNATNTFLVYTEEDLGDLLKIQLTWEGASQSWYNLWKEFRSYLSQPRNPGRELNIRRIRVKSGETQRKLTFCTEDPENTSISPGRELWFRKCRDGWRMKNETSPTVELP
Experiment: sandwich ECL immunoassay (MSD): MEDI5884 coated as capture, EL from plasma or reference standard as analyte, biotinylated anti-human EL antibody (OriGene) as detection
Experimental: Sandwich immunoassay was developed for the detection human EL utilizing ECL readout. An MSD (MesoScale Discovery) plate was coated with 5 μg/ml of MEDI5884, at 50 μl/well, incubated at 4° C. on a flat surface and subsequently washed 3× with 300 μl/well of ELISA Wash Buffer. The assay plate(s) were blocked with 150 μl/well of I Block Buffer (IBB) for ≥60 min on an orbital plate shaker at room temperature (RT). Reference standards (RS), quality control (QC) and negative control (NC), prepared in IBB, and test samples were added to the plates at 35 μl/well. Samples that had been previously tested determined the minimally required dilution ratio (MRD) as two (2) for plasma samples. The assay plate(s) were incubated at RT on a plate shaker with gentle shaking for 60 minutes±10 minutes. Unbound analyte was removed by washing the plate(s) with ELISA wash buffer. To detect the captured analyte, 1 μg/ml of biotinylated anti-human EL monoclonal antibody (OriGene) was added at 35 μl/well and incubated for an additional 60 minutes±10 minutes at RT on a plate shaker. Unbound detection antibody was removed by washing the plate(s). […] Plates were washed again and Read Buffer was added at 150 μl/well. Signal was read on a MSD sector imager instrument within 20 minutes of addition of the Read Buffer. […]

binding result: binds
B1: MEDI5884 (antibody, human IgG4 S228P, kappa, V domains shown)
VH: QVQLVQSGSELKKPGASVKVSCKASGYTFTNYALNWVRQAPGQGLEWMGWINTYSGVGTYAGEFKGRFVFSLDTSVSTAYLQISSLKAEDTAVYYCARRGFYGRRFFDVWGKGTTVTVSS
VL: DIQLTQSPSSLSASVGDRVTITCKASQSVDYDVDSYMHWYQQKPGKAPKLLIYAASNLASGVPSRFSGSGSGTDFTFTISSLQPEDIATYYCQQTIEDPPTFGGGTKVEIKR
notes: It was coated on the MSD plate as the capture reagent
